Experimental findings from patent US20160311934A1, “HYDROXYALKYL STARCH DERIVATIVES AS REACTANTS FOR COUPLING TO THIOL GROUPS” (FRESENIUS KABI DEUTSCHLAND GMBH, priority 2013, published 2016) are described below.

Changes are numbered by the printed parent chain. Numbers in names are those of the source.

Data set [1] concerns the target T1, Interleukin 1 receptor type I (Homo sapiens, UniProt P14778).
T1 construct: purchased R&D Systems
T1 sequence (P14778 18-569): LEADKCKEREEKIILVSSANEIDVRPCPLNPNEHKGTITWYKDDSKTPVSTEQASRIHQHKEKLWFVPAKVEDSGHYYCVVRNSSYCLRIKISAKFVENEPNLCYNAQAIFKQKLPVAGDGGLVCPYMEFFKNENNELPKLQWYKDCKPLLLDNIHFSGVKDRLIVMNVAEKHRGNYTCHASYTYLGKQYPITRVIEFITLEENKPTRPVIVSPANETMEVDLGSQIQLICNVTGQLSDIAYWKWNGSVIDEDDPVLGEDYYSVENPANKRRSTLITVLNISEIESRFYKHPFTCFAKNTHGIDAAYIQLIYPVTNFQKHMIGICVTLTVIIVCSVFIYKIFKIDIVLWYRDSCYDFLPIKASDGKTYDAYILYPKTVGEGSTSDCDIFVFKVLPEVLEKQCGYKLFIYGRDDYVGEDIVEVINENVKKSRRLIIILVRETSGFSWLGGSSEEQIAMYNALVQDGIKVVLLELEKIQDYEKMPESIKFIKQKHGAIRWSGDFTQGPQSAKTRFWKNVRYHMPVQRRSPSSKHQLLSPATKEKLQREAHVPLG
The experiment in a line: SPR binding affinity on a BIAcore system. The conditions noted are these: immobilized receptor on CM3 chip, 1:1 binding stoichiometry. As for the experimental part: Conjugates of L12-HES with IL1RA were tested for binding affinity to its natural binding partner using SPR on a BIAcore system. Interleukin 1 receptor type I (R&D Systems) was immobilized on the chip surface and the kinetic binding parameters were determined for the conjugate in comparison to the unmodified protein (chip: CM3, immobilization: 950 RU, flow rate 30 μl/min, association 180 s, dissociation 900 s, regeneration: 6 s with 5 mM glycine buffer, pH 2.0). The curves were analyzed by assuming a 1:1 binding stoichiometry.
(SPR reads the build-up and loss of mass on a sensor chip optically.)

The test system of data set [2] is peptidyl prolyl bonds. The data set is described as follows: Prolyl isomerase activity assay. It is filed as biochemical. As for the experimental part: Prolylisomerases like SlyD catalyze the trans to cis isomerization of peptidyl prolyl bonds. The prolyl isomerase activities of SlyD and the L12-HES-SlyD conjugate were measured by a prolyl isomerase activity assay according to Zoldak et al. (2009, Biochemistry, 48, 10423-10436). The rate constant of the cis to trans isomerization of the prolyl bond was determined using Origin 8.1. […] The catalytic activity of unmodified SlyD is 5.6·10^6 M^−1s^−1 and the activity of the L12-HES-SlyD conjugate is 6.0·10^6 M^−1s^−1 (107% of the activity of unconjugated SlyD). The higher activity of the conjugate compared to unmodified SlyD is within the error of the assay.

Data set [3] in a line: Stability tests of HES-protein conjugates at different pH, 40° C., 20 days. The class given is physicochemical. As to conditions: protein conjugate 1 mg/ml. As for the experimental part: For stability tests at pH 4.0, 5.5, 7.0 and 8.0, the conjugates were diluted into final buffer conditions of 20 mM acetate (pH 4.0 and 5.5) or 10 mM phosphate (pH 7.0 and 8.0), 0.5 mM ETDA, 154 mM NaCl to a final concentration of 1 mg/ml. The conjugates were stored at 40° C. for 20 days and analyzed by RP-HPLC (example for Ubi is shown in FIG. 3), SEC (as described in example C1) or SDS-PAGE (as described in example C1).

Turning to “unmodified IL1RA: interleukin-1 receptor antagonist (Kineret®), unconjugated”, in data set [1], the association rate ka is 588000 M⁻¹ s⁻¹.
On the same count and under the same terms, in the case of “IL1RA that is conjugated to HES via N-terminal coupling: IL1RA that is conjugated to HES via N-terminal coupling” it was 263000 M⁻¹ s⁻¹.

B1: unmodified SlyD: SlyD D101C, sensitive to lysis protein D, a prolylisomerase, unconjugated (protein, UniProt P0A9K9 1-196, looked up, variant D101C)
FKBP-type peptidyl-prolyl …: MKVAKDLVVSLAYQVRTEDGVLVDESPVSAPLDYLHGHGSLISGLETALEGHEVGDKFDVAVGANDAYGQYDENLVQRVPKDVFMGVDELQVGMRFLAETCQGPVPVEITAVEDDHVVVDGNHMLAGQNLKFNVEVVAIREATEEELAHGHVHGAHDHHHDHDHDGCCGGHGHDHGHEHGGEGCCGGKGNGGCGCH
Take B1: in data set [2], the “catalytic activity (prolyl isomerization)” value was determined as 5.6e+06 M⁻¹ s⁻¹.

B2: L12 X12 SlyD (conjugate, UniProt P0A9K9 1-196, looked up)
FKBP-type peptidyl-prolyl …: B1 FKBP-type peptidyl-prolyl … with C101D
modifications: HES X12 via linker L12
For B2, the “conjugate degradation after 20 days (%) pH 7.0” value in data set [3] (10 mM phosphate pH 7.0, 40° C.) is listed as 3.4%. Moreover, the “conjugate degradation after 20 days (%) pH 8.0” value in data set [3] (10 mM phosphate pH 8.0, 40° C.) turned out to be 9.0%. For the same molecule, the “conjugate degradation after 20 days (%) pH 5.5” value in data set [3] (20 mM acetate pH 5.5, 40° C.) is recorded as 1.4%. The “catalytic activity (prolyl isomerization)” value in data set [2] came out at 6e+06 M⁻¹ s⁻¹. In addition, the “% of the activity of unconjugated SlyD” value in data set [2] (relative to unconjugated SlyD) stood at 107%.
